Experimental data: publication PMC2115046
Values joined by “and” are separate entries in the source; they are usually repeats but may differ in a detail not shown here. Equal entries are not always repeated. Where two headings read alike, the source gives them in different places.

Experiments:
[1] = molecular target: G-actin, rabbit skeletal muscle (rabbit) (UniProt P68135); test: other fluorescence titration
[2] = molecular target: G-actin, rabbit skeletal muscle (rabbit) (UniProt P68135); test: dissociation kinetics by etheno-ATP fluorescence decay
[3] = molecular target: G-actin, rabbit skeletal muscle (rabbit) (UniProt P68135); test: association kinetics by inactivation of etheno-ATP exchange
[4] = molecular target: G-actin, rabbit skeletal muscle (rabbit) (UniProt P68135)

Chain of 14NT, 14-kD fragment of human plasma gelsolin containing the NH2 terminal (domain or fragment) (P06396 28-782): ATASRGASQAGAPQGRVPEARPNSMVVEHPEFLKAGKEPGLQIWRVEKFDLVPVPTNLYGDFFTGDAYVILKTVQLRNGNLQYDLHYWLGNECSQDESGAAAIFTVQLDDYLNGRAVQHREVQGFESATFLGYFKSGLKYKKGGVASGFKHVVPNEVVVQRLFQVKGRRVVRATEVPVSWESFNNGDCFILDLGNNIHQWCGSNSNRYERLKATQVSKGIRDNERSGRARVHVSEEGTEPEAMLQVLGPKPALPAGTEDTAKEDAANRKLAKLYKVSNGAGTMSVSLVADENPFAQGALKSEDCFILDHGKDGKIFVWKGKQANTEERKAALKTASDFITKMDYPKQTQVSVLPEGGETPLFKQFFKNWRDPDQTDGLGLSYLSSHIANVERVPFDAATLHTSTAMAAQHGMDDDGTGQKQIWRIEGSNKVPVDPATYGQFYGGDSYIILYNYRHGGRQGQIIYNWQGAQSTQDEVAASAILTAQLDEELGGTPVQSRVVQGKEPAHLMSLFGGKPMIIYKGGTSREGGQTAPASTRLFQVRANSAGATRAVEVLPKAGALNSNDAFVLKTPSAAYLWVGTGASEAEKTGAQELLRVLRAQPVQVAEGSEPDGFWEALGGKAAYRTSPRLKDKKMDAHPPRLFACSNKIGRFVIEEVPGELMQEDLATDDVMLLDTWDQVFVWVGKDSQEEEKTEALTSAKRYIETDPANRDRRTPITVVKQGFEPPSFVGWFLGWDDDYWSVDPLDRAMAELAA
Chain of 41CT, 41-kD COOH-terminal half of human plasma gelsolin (domain or fragment) (P06396 28-782): as above

| half-maximal saturation [1] | koff [1] | stoichiometry N [1] | koff [2] | t1/2 of the complex [2] | kon [3] | Ka [4] | Kd [4] | Kd [1] | Substance |
| --- | --- | --- | --- | --- | --- | --- | --- | --- | --- |
| 1 nM and 2 nM | 0.0003 s⁻¹ | 1 | 1.35e-06 s⁻¹ | 143 h | 299000 M⁻¹ s⁻¹ | 2.2e+11 M⁻¹ | 0.004 to 0.005 nM | – | 14NT, 14-kD fragment of human plasma gelsolin containing the NH2 terminal (domain or fragment) |
| – | – | 1 | – | – | – | – | – | 25 nM | 41CT, 41-kD COOH-terminal half of human plasma gelsolin (domain or fragment) |
